Experimental data reported in patent US20200239573A1 (CRESCENDO BIOLOGICS, published 2020).
Changes are numbered by the printed parent chain. “And” between values parts separate entries of the source, which are not always exact repeats. Equal entries are not always repeated. Where two headings read alike, the source gives them in different places.

What was measured:
[1] = target: T1, cynomolgus PD-1 recombinant protein (cynomolgus, UniProt B0LAJ3 25-170); assay: HTRF binding, 2 nM PD-1, anti-Fc cryptate and anti-His-D2
T1 construct: Detected with anti human-Fc cryptate, so probably Fc tagged; also called cyno PD-1; cynomolgus PD-1 (Acro Biosystems cat no. PD-1-05254); not shown: The vendor's carrier tag; It is probably a human Fc, since detection used anti human-Fc cryptate
T1 sequence (B0LAJ3 entry or part of it limits assumed): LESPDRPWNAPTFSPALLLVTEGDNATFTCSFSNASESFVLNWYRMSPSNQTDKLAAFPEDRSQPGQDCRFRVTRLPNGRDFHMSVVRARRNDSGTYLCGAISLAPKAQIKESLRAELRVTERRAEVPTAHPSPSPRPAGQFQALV
Method: (§1) e) Species Cross Reactivity Testing Purified […] were tested for their ability to bind to human PD-1 (R&D Systems cat no. 1086-PD), cynomolgus PD-1 (Acro Biosystems cat no. PD-1-05254) and mouse PD-1 (R&D Systems cat no. 1021-PD) in an HTRF Binding assay format. All reagents and serially diluted VH were prepared in assay buffer containing PBS, 0.1% BSA and 0.4M Potassium Fluoride. Samples or assay buffer (non-specific binding) were incubated with 2 nM human/cynomolgus or mouse PD-1, 1 nM Anti human-Fc Cryptate PAb (Cisbio cat. no. 61HFCKLB) and 30 nM anti His-D2 (CisBio cat no 61HISDLA) in black 384-shallow well assay plates for a minimum of 3 hours at room temperature. Time-resolved fluorescent emission at 620 nm and 665 nm was measured following excitation at 337 nm on the BMG PHERAstar plate reader. The HTRF ratio were calculated ((665 nm emission/620 nm emission)*10000) and the data corrected for (non-specific binding) to give the specific binding signal.

[2] = target: T2, recombinant human PD-1 Fc chimera (human, UniProt Q15116 25-167); assay: as above
T2 construct: Bought protein; also called human PD-1-huFc; huPD-1-Fc; not shown: human Fc
T2 sequence (Q15116 25-167 limits assumed, change not shown): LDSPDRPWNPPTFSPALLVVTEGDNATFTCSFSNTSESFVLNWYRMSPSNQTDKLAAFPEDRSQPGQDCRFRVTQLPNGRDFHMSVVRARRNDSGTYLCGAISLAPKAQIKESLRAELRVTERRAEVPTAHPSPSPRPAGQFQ
Method: as §1

mouse PD-1 protein [3] = target: T3, mouse PD-1 protein (mouse, UniProt Q02242 25-167); assay: HTRF binding, 2 nM mouse PD-1
T3 construct: Detected with anti human-Fc cryptate, so probably Fc tagged; also called mouse PD-1 (R&D Systems cat no. 1021-PD)
T3 sequence (looked up): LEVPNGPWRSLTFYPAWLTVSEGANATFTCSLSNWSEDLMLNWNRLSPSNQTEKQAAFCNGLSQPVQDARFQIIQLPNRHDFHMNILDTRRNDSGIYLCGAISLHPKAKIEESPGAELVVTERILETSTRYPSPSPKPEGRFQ
Method: as §1

[4] = target: T4, human PD-1 expressed on cells (CHO human PD-1 cells) (human, UniProt Q15116 21-288); assay: FMAT inhibition assay on CHO human PD-1 cells; blocked ligand: human Fc tagged human PD-L1
T4 construct: also called CHO TREX human PD-1 cell line; CHO PD-1
T4 sequence (Q15116 21-288): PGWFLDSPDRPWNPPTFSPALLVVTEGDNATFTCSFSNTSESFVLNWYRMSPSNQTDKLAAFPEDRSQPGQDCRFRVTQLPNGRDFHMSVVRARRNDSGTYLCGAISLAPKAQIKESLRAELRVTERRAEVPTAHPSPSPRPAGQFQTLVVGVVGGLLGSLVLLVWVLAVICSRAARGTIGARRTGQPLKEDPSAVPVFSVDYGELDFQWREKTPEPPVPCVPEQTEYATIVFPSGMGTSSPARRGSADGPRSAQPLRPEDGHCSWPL
Method: (§2) All reagents and serially diluted VH were prepared in FMAT assay buffer. […] Plates were incubated for 2 hours at room temperature then fluorescence measured in the FL2 (502 nm-537 nm) and FL5 (677-800 nm) channels on the Mirrorball plate reader (TTP) following excitation at 488 nm and 640 nm. Data was expressed as a % of the total binding control (i.e. % control) after subtraction of the background signal determined from the non-specific binding control wells.

[5] = target: T2, recombinant human PD-1 Fc chimera; assay: HTRF inhibition; strep-tagged PD-L1 vs PD-1-Fc
[6] = target: T2, recombinant human PD-1 Fc chimera; assay: HTRF inhibition; biotinylated PD-L2-Fc vs Eu-cryptate PD-1-Fc
[7] = target: T2, recombinant human PD-1 Fc chimera; assay: SPR Biacore T200, PD-1-huFc amine-coupled, single cycle kinetics
Method: Binding kinetics of certain VH single domain antibodies binding to human PD-1-huFc were measured by surface plasmon resonance (SPR) technology using Biacore T200 instrument (GE Healthcare). Recombinant human PD-1-huFc was immobilized by standard amine coupling to CM5 sensorschip (GE Healthcare) using in range of 0.1-0.01 mg/ml solution of antigen in 10 mM sodium acetate at pH 5.5. For the reference flow cell, a blank immobilisation was carried out. Single cycle kinetics assays were used to study the interaction, a five point, three-fold dilution series of each Humabody® was made with a top concentration of 30 nM. The binding kinetics were followed by flowing the Humabody® over the chip surface in HBS EP+ buffer at a flow rate of 30 μl/min. The contact time for each of the association steps was 180 seconds and the dissociation step was varied between 1200-3600 seconds. The data was fitted to a 1:1 binding model after double reference subtraction using the Biacore T200 Evaluation software.

[8] = target: human PD-1 expressed on cells (CHO human PD-1 cells) (human) (UniProt Q15116); assay: FMAT 1.57 epitope competition assay on CHO human PD-1 cells; competitor: 1.57-Strep tagged protein; 1 day in mouse serum
Chain of human PD-1 expressed on cells (CHO human PD-1 cells) (human) (Q15116 21-288): as above

[9] = target: T4, human PD-1 expressed on cells (CHO …); assay: as above
Method: (§3) For the epitope competition assay reagents were prepared in FMAT assay buffer. […] Plates were incubated for a minimum of 1.5 hours at room temperature then fluorescence measured in the FL2 (502 nm-537 nm) and FL5 (677-800 nm) channels on the Mirrorball plate reader (TTP) following excitation at 488 nm and 640 nm. Data was expressed as a % of the total binding control (i.e. % control) after subtraction of the background signal determined from the non-specific binding control wells.
(§4) Serum stability of VH and multivalent VH constructs was assessed by measurement of their activity following incubation for 0, 1, 4 or 7 days in mouse serum (Sigma M5905).

[10] = target: human PD-1 on primary human CD4+ T cells (human, UniProt Q15116 21-288); assay: flow cytometry on PHA-stimulated human CD4+ T cells (live cell gate)
Chain of human PD-1 on primary human CD4+ T cells (Q15116 21-288): as above
Method: Binding of monovalent single domain antibodies and multivalent binding agents to T cells was measured using flow cytometry. […] T-cells were stimulated with 2.5 μg/ml PHA for 2-4 days in RPMI media supplemented with 10% FBS, 2 mM Glutamine, 1× Pen/Strep. Cells were transferred into 96 well plates (75000 per well), blocked for 10 mins with PBS/1% BSA, then incubated with serially diluted VH in staining buffer (PBS/1% BSA) for 1 hour at 4° C. Cells were washed with staining buffer by centrifugation then incubated with 10 μg/ml biotinylated Anti His antibody for 40 mins at 4° C. Cells were washed again then stained with Streptavidin Alexa Fluor-488 (10 μg/ml) and 1:5000 diluted Live Dead near IR stain (Molecular Probes cat no. L10119) for 30 mins at 4° C. After further washing cells were fixed and fluorescence measured by flow cytometry.

[11] = target: human PD-1 expressed on cells (CHO human PD-1 cells) (human) (UniProt Q15116); assay: FMAT 1.57 epitope competition assay on CHO human PD-1 cells; competitor: 1.57-Strep tagged protein; 7 days in mouse serum
[12] = target: T4, human PD-1 expressed on cells (CHO …); assay: cell-based or functional assay
[13] = target: human PD-1 expressed on cells (CHO human PD-1 cells) (human) (UniProt Q15116); assay: cell-based or functional assay
[14] = target: human PD-1 expressed on cells (CHO human PD-1 cells) (human) (UniProt Q15116); assay: FMAT 1.57 epitope competition assay on CHO human PD-1 cells; competitor: 1.57-Strep tagged protein; 0 days in mouse serum
[15] = target: T2, recombinant human PD-1 Fc chimera; assay: SPR Biacore T200, PD-1-Fc captured on protein G, single cycle kinetics
Method: Single cycle kinetics assays were used to study the interaction between human Fc tagged human PD-1 with Humabody® on a Biacore T200 instrument (GE Healthcare). Protein G was amine coupled to two flow cells of a CM-5 chip. Human Fc tagged recombinant human PD-1 was captured onto one of the flow cells. The other was used as the reference flow cell. A five point, three-fold dilution series of each Humabody® was made with a top concentration within the range of 50 to 150 nM. The binding kinetics were followed by flowing the Humabody® over the chip surface in HBS EP+ buffer at a flow rate of 30 μl/min. The contact time for each of the association steps was 180 seconds and the dissociation step was 3600 seconds. The data was fitted to a 1:1 binding model after double reference subtraction using the Biacore T200 Evaluation software.

[16] = target: T4, human PD-1 expressed on cells (CHO …); assay: FMAT 1.57 epitope competition assay on CHO human PD-1 cells; competitor: 1.57-Strep tagged protein; 4 days in mouse serum
Method: as §3, §4

[17] = target: human PD-1 expressed on cells (CHO human PD-1 cells) (human) (UniProt Q15116); assay: FMAT inhibition assay on CHO human PD-1 cells; blocked ligand: human Fc tagged human PD-L1
[18] = target: T4, human PD-1 expressed on cells (CHO …); assay: FMAT 1.57 epitope competition assay on CHO human PD-1 cells; competitor: 1.57-Strep tagged protein; 7 days in mouse serum
Method: as §3, §4

[19] = target: T4, human PD-1 expressed on cells (CHO …); assay: FMAT inhibition assay on CHO human PD-1 cells; blocked ligand: human Fc tagged human PD-L1; a separate run from Figure 4 a)
Method: as §2

[20] = target: T4, human PD-1 expressed on cells (CHO …); assay: FMAT 1.57 epitope competition assay on CHO human PD-1 cells; competitor: 1.57-Strep tagged protein; 0 days in mouse serum
Method: as §3, §4

[21] = target: T4, human PD-1 expressed on cells (CHO …); assay: cell-based or functional assay; remark: listed apart in the source
mouse PD-1 protein [22] = target: T3, mouse PD-1 protein; assay: HTRF binding
[23] = target: T4, human PD-1 expressed on cells (CHO …); assay: cell-based or functional assay; remark: listed apart in the source
[24] = target: T5, Strep tagged recombinant human PD-1 (human, UniProt Q15116 25-170, limits assumed); assay: SPR Biacore T200, strep-tagged PD-1 amine-coupled, single cycle kinetics
T5 construct: the whole entry is named; also called strep tagged human PD-1; not shown: Strep tag
T5 sequence (Q15116 25-170 limits assumed): as the sequence (B0LAJ3 entry or part of it limits assumed) above, with E2D, A10P, L19V, A35T, R75Q, A144T counted along it

B1: Humabody® 1.1 (VHH)
VHH: QVQLVESGGGLVKPGGSLRLSCAASGFTFSDYTMTWMRQAPGKGLEWVSYISTGGTIKYYTDSVKGRFTISRDNAKNSLYLQMNSLRADDTAVYYCAREAPLRLGESPHDAFDIWGQGTMVTVSS
notes: human VH single domain antibody; also called VH single domain antibody 1.1; clone 1.1
[1]
  EC50: 6.3 nM
[2]
  EC50: 4 nM
Mouse PD-1 protein [3]
  binding result: no binding
[4]
  IC50 (read off the curve): ~20 nM
[5]
  IC50: 1.27 nM
[6]
  IC50: 4.9 nM
[7]
  Kd: 0.676 nM
  koff: 7.35e-05 s⁻¹
  kon: 109000 M⁻¹ s⁻¹

B2: Humabody® 1.57 (VHH)
VHH: B1 VHH with Y32N, T33S, T53S, T56G, I57V, K58I, Y59F, T61A, W115S
notes: human VH single domain antibody
[8]
  IC50 (read off the curve): 1 nM
[1]
  EC50: 0.75 nM
[2]
  EC50: 0.59 nM
[9]
  IC50 (read off the curve): ~0.7 nM
Mouse PD-1 protein [3]
  binding result: no binding
[10]
  EC50 (read off the curve): 1 nM
[10]; record 2
  EC50 (read off the curve): ~0.2 nM
[11]
  IC50 (read off the curve): 3 nM
[12]
  Reporter Assay EC50: 8.6 nM
[13]
  EC50 (M), human PD-1 reporter gene assay: 1e-08 M
  EC50 (M), reporter assay: 1e-08 M
[14]
  IC50 (read off the curve): 2 nM
[15]
  Kd: 0.0586 nM and 0.0533 nM
  koff: 1.99e-05 s⁻¹ and 2.32e-05 s⁻¹
  kon: 340000 M⁻¹ s⁻¹ and 435000 M⁻¹ s⁻¹
[16]
  IC50 (read off the curve): ~1 nM
[17]
  IC50 (read off the curve): 6 nM
[18]
  IC50 (read off the curve): ~2 nM
[19]
  IC50 (read off the curve): ~4 nM
[20]
  IC50 (read off the curve): ~0.4 nM

B3: 1.57-4GS-1.57 (other)
chain: QVQLVESGGGLVKPGGSLRLSCAASGFTFSDNSMTWMRQAPGKGLEWVSYISSGGGVIFYADSVKGRFTISRDNAKNSLYLQMNSLRADDTAVYYCAREAPLRLGESPHDAFDISGQGTMVTVSSGGGGSGGGGSGGGGSGGGGSQVQLVESGGGLVKPGGSLRLSCAASGFTFSDNSMTWMRQAPGKGLEWVSYISSGGGVIFYADSVKGRFTISRDNAKNSLYLQMNSLRADDTAVYYCAREAPLRLGESPHDAFDISGQGTMVTVSS
notes: bivalent construct of two VH domains in one chain
[21]
  EC50 (M), reporter assay: 1e-09 M
Mouse PD-1 protein [22]
  binding result: no binding
[23]
  EC50 (M), human PD-1 reporter gene assay: 1e-09 M
[24]
  Kd: 0.0173 nM
  koff: 1.54e-05 s⁻¹
  kon: 888000 M⁻¹ s⁻¹
